Values quoted from earlier work, collected in article PMC4286324.

Target: Nef (Human immunodeficiency virus 1) (UniProt P04324)

Hck SH3 (from UniProt P08631)
Kd: 0.25 µM
